Experimental data: PMC6127294, “Jungle Express is a versatile repressor system for tight transcriptional control” (Nature Communications, 2018)
Where a chain is given by its changes, count along the chain named.

T1: EilR (UniProt A0A346M331 1-192)
T1 sequence: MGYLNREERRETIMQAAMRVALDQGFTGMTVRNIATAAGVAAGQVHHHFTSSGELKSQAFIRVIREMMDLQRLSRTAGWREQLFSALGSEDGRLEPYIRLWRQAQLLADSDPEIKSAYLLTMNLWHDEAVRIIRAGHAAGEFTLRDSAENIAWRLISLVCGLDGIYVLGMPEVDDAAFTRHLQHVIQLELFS

T2: EilR-R32A (UniProt A0A346M331 1-192, R32A)
T2 sequence: T1 sequence with R32A

T3: EilR-H47A (UniProt A0A346M331 1-192, H47A)
T3 sequence: T1 sequence with H47A

T4: EilR-Y03A/R32A (UniProt A0A346M331 1-192, Y3A;R32A)
T4 sequence: T1 sequence with Y3A, R32A

B1: eilO2 (dsDNA)
DNA 1: CGCAAACTGGACGGATGTCCAGCTTTGT
DNA 2: ACAAAGCTGGACATCCGTCCAGTTTGCG
B2: eilOc 28-mer duplex (dsDNA)
DNA 1: AAAAAGTTGGACACGTGTCCAACTTTCC
DNA 2: GGAAAGTTGGACACGTGTCCAACTTTTT

How the values were obtained:
[1] = target: T1, EilR; test: EMSA; lower affinity than eilOc; 5 mM MgCl2; Operator EMSA: 30 mM Tris pH 7.7, 100 mM NaCl, 25 mM arginine, 25 mM glutamine, 5 mM MgCl2, RT 1.5 h; mutant EMSA: 50 mM Tris pH 8.0, 150 mM NaCl, 50 mM arginine, 50 mM glutamine, 10 mM MgCl2, 0.5 mM DTT, RT 30 min; 2% agarose TBE gels; details: protein: recombinant; tags: His8 removed with TEV protease; chain copies: 2
[2] = target: T2, EilR-R32A; test: EMSA; up to 8:1 protein:DNA; 10 mM MgCl2; Operator EMSA: 30 mM Tris pH 7.7, 100 mM NaCl, 25 mM arginine, 25 mM glutamine, 5 mM MgCl2, RT 1.5 h; mutant EMSA: 50 mM Tris pH 8.0, 150 mM NaCl, 50 mM arginine, 50 mM glutamine, 10 mM MgCl2, 0.5 mM DTT, RT 30 min; 2% agarose TBE gels; details: protein: recombinant; chain copies: 2
[3] = target: T3, EilR-H47A; test: as above; details: protein: recombinant; chain copies: 2
[4] = target: T4, EilR-Y03A/R32A; test: as above; details: protein: recombinant; chain copies: 2
[5] = target: T1, EilR; test: EMSA; complex appears from 0.125:1 EilR:DNA; 10 mM MgCl2; Operator EMSA: 30 mM Tris pH 7.7, 100 mM NaCl, 25 mM arginine, 25 mM glutamine, 5 mM MgCl2, RT 1.5 h; mutant EMSA: 50 mM Tris pH 8.0, 150 mM NaCl, 50 mM arginine, 50 mM glutamine, 10 mM MgCl2, 0.5 mM DTT, RT 30 min; 2% agarose TBE gels; details: protein: recombinant; tags: His8 removed with TEV protease; chain copies: 2

Binder | binding result [1] | binding result [2] | binding result [3] | binding result [4] | binding result [5]
B1 | binds | – | – | – | –
B2 | – | no binding | no binding | no binding | binds
